The record followed here is ChEMBL document CHEMBL1145329, “Novel methylenephosphophosphonate analogues of mycophenolic adenine dinucleotide. Inhibition of inosine monophosphate dehydrogenase” (J Med Chem, 2006).

The subject of the data set is NC(=O)c1ccc[n+]([C@@H]2O[C@H](COP(=O)([O-])OP(=O)(O)OC[C@H]3O[C@@H](n4cnc5c(N)ncnc54)[C@H](O)[C@@H]3O)[C@@H](O)[C@H]2O)c1. The experiment in a line: Inhibition of human IMPDH. The class given is protein assay.

As a reminder, the Km is the substrate concentration at which the rate is half of its maximum. Consider “Inosine-5'-monophosphate dehydrogenase (IMPDH) (Homo sapiens) (from UniProt P20839+P12268)”, for which the Km came out at 100 µM.
